# Measurements as given in patent US9687529B2, “Method of controlling coagulation” (Duke University, priority 2011, dated 2017).
# Where “and” joins values, the source holds several entries; their conditions need not be identical. Identical values can stand only once. Like-named read-outs stand apart in the source and are kept apart here. Strand notation (5' to 3'): a small letter for the sugar, then the base; units joined by * are phosphorothioate-linked, units joined directly phosphodiester-linked; [ ] holds rarer units or linkages, { } end groups; capitals alone tell only the bases. r = 2'-OH (RNA); f = 2'-fluoro
# B1: 7S-1: FVIIa aptamer, 2'-fluoropyrimidine modified RNA, SEQ ID NO: 5 (nucleic acid)
# chain: rGrGrGrArGrGrAfCrGrAfUrGfCrGrGrAfCfUfCfCfUfCfCrArArGfCrGrAfCfCrArAfCrAfUfCrGrGfUfCfCfCrGfUfUfUfCrArGrAfUfCrArAfCrArGrAfCrGrAfCfUfCrGfCfUrGrArGrGrAfUfCfCrGrArGrA
# B2: FX/FII dogbone 4: FX/FII dogbone aptamer of reduced size, SEQ ID NO: 22 (nucleic acid)
# chain: GUCGAUCACACAGUUCAAACGUAAUAAGCCAAUGUACGAGGCAGACGACAAAGCCCCAGCGAGAUAAUACUUGGCCCCGCU
# modifications: listed as RNA, chemistry not given here
# Key:
# [1] = molecular target: thrombin (Homo sapiens, UniProt P00734); conditions: cited from earlier work
# [2] = tested on: clot formation in plasma; conditions: cited from earlier work
# [3] = cited from earlier work
# [4] = tested on: clot formation in whole blood; assay: Antidote reversal TEG of 11F7T+R9D-14T anticoagulation; format: cell-based, human; conditions: blood anticoagulated 1 hour with 11F7T 0.5 μM+R9D-14T 5 μM; protamine 22 μM (4-fold molar excess); average
# Protocol: For the antidote reversal TEGs, whole blood was anticoagulated with a combination of the FXa (0.5 μM) and prothrombin (5 μM) aptamers for 1 hour as described, antidote (10 μL) was added, and the assay was continued until a stable clot was formed. For complete antidote reversal at one hour a 4-fold molar excess of protamine (22 μM) was added, 50 μg of CDP was added, or a 2-fold molar excess of the R9D-14T oligonucleotide (10 μM) in combination with a 3-fold molar excess of the 11F7T antidote oligonucleotide (1.5 μM) was added.
# Whole blood was anticoagulated with 11F7T+R9D-14T at a dose that prevents clot formation for greater than three hours, and various antidotes were subsequently added after one hour to assess anticoagulation reversal and resulting clot formation. Both protamine and the β-cyclodextrin containing polymer (CDP) were tested for their ability to function as a universal antidote by simultaneously reversing both aptamers in combination (Oney et al, Nat Med 15:1224-8 (2009)). […] Thus, although the 11F7T+R9D-14T aptamer combination is an extremely potent anticoagulant cocktail that can mimic UFH anticoagulation in an ex vivo oxygenator circuit, the aptamer combination can be rapidly reversed with either a universal antidote or a combination of oligonucleotide antidotes.
# [5] = patient with renal failure; cited from earlier work
# [6] = tested on: clot formation in normal human platelet poor plasma; assay: Prothrombin time (PT) plasma clotting assay; format: biochemical
# Protocol: The activated partial thromboplastin time (aPTT) and prothrombin time (PT) assays were performed on a model ST4 mechanical coagulometer (Diagnostica Stago, Parsippany, N.J.) as previously described (Bompiani et al, J Thromb Haemost 10:870-80 (2012)). For the aPTT, 50 μL of normal human platelet poor plasma (PPP) was incubated with 50 μL TriniClot aPTT S (Trinity BioTech, Bray, Co Wicklow, Ireland) at 37° C. for 5 min. Aptamer(s) (5 μL) was added, and the mixture was incubated at 37° C. for another 5 min, and CaCl2 (50 μL) was added to initiate the assay. For the PT, 50 μL of normal human PPP was incubated with 5 μL of aptamer(s) at 37° C. for 5 min. TriniClot PT Excel reagent (Trinity BioTech, Bray, Co Wicklow, Ireland) (100 μL) was added to initiate the reaction. Assays with a combination of two aptamers contain an equimolar concentration of each individual aptamer, and the data shown are the total RNA concentration.
# To compare the anticoagulant effect of these four aptamers, dose-response titrations were performed in several clinical plasma-based clotting assays. The activated partial thromboplastin time (aPTT) and prothrombin time (PT) are plasma clotting assays that are clinically used to probe for abnormalities in the intrinsic and extrinsic coagulation pathways, respectively (Van Cott et al, editors. Jacobs & DeMott laboratory test handbook. 5th ed. Hudson Ohio: Lexi-Comp. p. 327-58 (2001)). These relatively simple assays measure the time until clot formation in platelet poor plasma (PPP) in response to either robust tissue factor (TF), or contact stimulation via negatively charged surfaces (i.e., silica, kaolin, celite). […] At high concentrations, the prothrombin aptamer (R9D-14T) was the most robust anticoagulant and inhibited greater than 96% of prothrombin activity in the aPTT and PT. At 4 μM, R9D-14T increased the aPTT clotting time approximately 18-fold and the PT clotting time greater than 80-fold (exceeded the assay limit of 999 sec). […] At the same dose, the FIXa aptamer (9.3T) inhibited greater than 99% of FIX activity and increased the aPTT clotting time approximately 5.5-fold, while the FVIIa aptamer (7S-1) increased the PT clotting time 3-fold and inhibited greater than 99% of FVII activity (FIGS. 20A and 20B).
# [7] = tested on: thrombin generation in normal human platelet poor plasma; assay: Calibrated automated thrombography (CAT); format: biochemical; conditions: TF 5 ρM
# Protocol: Normal human platelet poor plasma (80 μL) was mixed with aptamer(s) (10 μL) in an Immunolon 2HB U Bottom Mictrotiter 96-well plate (Thermo Labsystems, Franklin, Mass.) and incubated at 37° C. for 5 min. PPP reagent (Diagnostica Stago, Parsippany, N.J.) (either 1 ρM or 5 ρM TF, 20 μL, Diagnostica Stago) was added, and the mixture was incubated at 37° C. for another 5 min. FluCa (Diagnostica Stago) (10 μL) was added to initiate the assay and thrombin generation was measured for 60 minutes at 37° C. with a Fluoroskan Ascent fluorometer (ThermoLabsystem, Helsinki, Finland) according to the manufacturer's instructions. The amount of thrombin generated was quantified by comparison to an assay with thrombin calibrator reagent (Diagnostica Stago) that has a known activity toward the fluorogenic substrate. The lag time, peak amount of thrombin generated, and endogenous thrombin potential (ETP) were automatically calculated by the Thrombinoscope software (Thrombinoscope BV, the Netherlands).
# Thrombin is the final protease formed in the coagulation cascade, and the rate of thrombin generation and the total amount of thrombin generated is associated with blood clot formation and stability (Wolberg, Blood Rev 21:131-42 (2007)). To gain more information about the impact of aptamer anticoagulation on the kinetics of thrombin generation, the individual aptamers were analyzed with calibrated automated thrombography (CAT). The CAT assay measures real-time thrombin generation in plasma by monitoring cleavage of a thrombin-specific fluorogenic substrate in response to TF stimulation (Heruker et al, Pathophysiol Haemost Thromb 33: 4-15 (2003)). The parameters of thrombin generation analyzed include: the lag time (time until thrombin generation begins), the peak (the maximal amount of thrombin generated at a given time) and the endogenous thrombin potential (ETP, the total amount of thrombin generated). Similar to the aPTT and PT clotting assays, all of the individual aptamers dose-dependently impacted the various parameters of thrombin generation (FIG. 21 and Table 1). […] 9.3T minorly impacted all parameters of thrombin generation with the high TF reagent; however, because high concentrations of TF may bypass FIX activity by directly generating FXa, the manufacturer recommends low concentrations of TF for analyzing FIX deficient (i.e, Hemophilia B) plasma in the CAT.
# [8] = tested on: clot formation in whole blood; assay: Thromboelastography (TEG), whole blood stimulated with tissue factor; format: cell-based, human
# Protocol: Blood was drawn from healthy, consented volunteers under a Duke University Institutional Review Board approved protocol and anticoagulated with 3.2% sodium citrate. Whole blood (320 μL) was mixed with anticoagulant (heparin or aptamers) (10 μL) and kaolin (Haemonetics, Niles, Ill.) (10 μL) or CAT PRP reagent (Diagnostica Stago, 0.33 ρM TF final) (10 μL) was added to stimulate clotting. CaCl2 (20 μL) was immediately added to overcome the citrate, the mixture was added to a plain disposable plastic TEG cup (Haemonetics), and the assay was run according to the manufacturer's instructions. Clot formation at 37° C. was measured with a Thromboelastograph Analyzer (Haemonetics, Niles, Ill.) until a stable clot was formed (i.e., a maximum amplitude was reached) or for three hours with the aptamer combinations. The time lag time, α-angle, and maximum amplitude were automatically calculated by the TEG® Analytical Software version 4.2.3 (Haemonetics).
# Because kaolin stimulates blood via the intrinsic pathway, it is unlikely that 7S-1 (FVIIa aptamer) would impair clot formation with this type of stimulation; thus, this aptamer was tested in a modified TEG with TF stimulation. CAT platelet rich plasma (PRP) reagent (TF) was diluted to a final concentration of 0.33 ρM TF to stimulate clotting.
# [9] = tested on: clot formation in whole blood; assay: TEG of whole blood, coagulation triggered by tissue factor (Example I); format: cell-based; conditions: TF; FVIIa aptamer 0.5, FIXa aptamer 1.0, FXa aptamer 1.0 micromolar
# Protocol: TEG is a waveform generated from serial measurements of the torque transmitted from a small oscillating cup to the tip of a metal pin inserted into the cup by a 360 microliter sample of blood or plasma added to the cup.
# A 360 microliter blood sample has been added to the cup. For 180 minutes after the sample is added, the cup oscillates alternatively clockwise and counterclockwise through an arc of 4° 45′ at a frequency of one oscillation cycle—i. e., one clockwise rotation and one counterclockwise rotation—every 10 seconds. The lower end of the pin is immersed by the sample; the upper end is suspended from a torsion wire. The TEG analyzer records a single measurement of rotation-induced torque after each clockwise rotation and after each counterclockwise rotation of the cup. “The torque of the rotating cup is transmitted to the immersed pin only after fibrin-platelet bonding has linked the cup and [the] pin together. The strength of these fibrin-platelet bonds affects the magnitude of the pin motion, such that strong clots move the pin directly in phase with the cup motion. Thus, the magnitude of the output is directly related to the strength of the formed clot . . . . [If] the clot retracts or lyses, these bonds are broken and the transfer of cup motion is diminished. The rotation movement of the pin is converted by a mechanical-electrical transducer to an electrical signal which can be monitored by a computer” (TEG 5000 User Manual, pp 3-4, 1999-2007)). The computer converts the series of electrical signals into the TEG tracing.
# [10] = tested on: clot formation in whole human blood; assay: TEG of dogbone aptamer in whole human blood; format: cell-based
# Protocol: Activity of dogbone 4 was tested using thromboelastography (TEG), an assay using whole human blood.
# [11] = concentration ten-fold higher than recommended for CPB
molecule,measurement,setting,value
FPRPGGGGNGDFEEIPEEYL [bivalirudin],Kd,[1],~1.9 nM
same,clot propagation and strength (in words),[2]; [11],did not significantly reduce clot propagation and strength
same,in vivo half-life,[3],about 30 minutes
protamine,time to stable clot formation after antidote,[4],≤ 15 min
lepirudin,time the drug can remain in the circulation,[5],> 120 h
same,clot propagation and strength (in words),"[2]; 10 micrograms/mL, approximately 1.4 micromolar",significantly reduce clot propagation and strength
CC1CNc2c(cccc2S(=O)(=O)N[C@@H](CCCNC(=N)N)C(=O)N2CC[C@@H](C)C[C@@H]2C(=O)O)C1 (some centres unmarked) [argatroban],clot propagation and strength (in words),[2]; [11],did not significantly reduce clot propagation and strength
B1,increase of PT clotting time,[6]; 4 μM aptamer,3 fold
same,FVII activity inhibited,"[6]; PT, 4 μM",greater than 99%
same,ETP,[7]; RNA 1.25 nM,1657.33 ± 42.72 nM·min
same,Lag-time,[7]; RNA 1.25 nM,1.67 ± 0.19 min
same,Peak,[7]; RNA 1.25 nM,314.56 ± 14.17 nM
same,TTP,[7]; RNA 1.25 nM,4.28 ± 0.20 min
same,ETP,[7]; RNA 2.5 nM,1603.50 ± 28.00 nM·min
same,Lag-time,[7]; RNA 2.5 nM,2.00 ± 0.17 min
same,Peak,[7]; RNA 2.5 nM,274.39 ± 29.71 nM
same,TTP,[7]; RNA 2.5 nM,5.29 ± 0.55 min
same,ETP,[7]; RNA 5 nM,1656.20 ± 96.89 nM·min
same,Lag-time,[7]; RNA 5 nM,3.17 ± 0.19 min
same,Peak,[7]; RNA 5 nM,238.68 ± 31.03 nM
same,TTP,[7]; RNA 5 nM,7.34 ± 0.55 min
same,ETP,[7]; RNA 10 nM,1339.50 ± 21.15 nM·min
same,Lag-time,[7]; RNA 10 nM,4.51 ± 0.42 min
same,Peak,[7]; RNA 10 nM,130.54 ± 14.06 nM
same,TTP,[7]; RNA 10 nM,11.01 ± 0.79 min
same,ETP,[7]; RNA 30 nM,1523.50 ± 160.63 nM·min
same,Lag-time,[7]; RNA 30 nM,6.01 ± 0.44 min
same,Peak,[7]; RNA 30 nM,199.25 ± 41.13 nM
same,TTP,[7]; RNA 30 nM,10.80 ± 1.03 min
same,Angle,[8]; RNA 0.12 μM,65.2 ± 5.2 deg
same,Lag-time,[8]; RNA 0.12 μM,4.5 ± 0.6 min
same,Max. Amplitude,[8]; RNA 0.12 μM,63.0 ± 3.7 mm
same,Angle,[8]; RNA 0.25 μM,62.4 ± 3.7 deg
same,Lag-time,[8]; RNA 0.25 μM,5.1 ± 1.2 min
same,Max. Amplitude,[8]; RNA 0.25 μM,64.0 ± 2.8 mm
same,Angle,[8]; RNA 0.50 μM,61.9 deg and 61.9 ± 3.3 deg
same,Lag-time,[8]; RNA 0.50 μM,6.6 min and 6.6 ± 0.8 min
same,Max. Amplitude,[8]; RNA 0.50 μM,63.1 mm and 63.1 ± 2.0 mm
same,clot formation (in words),[9],none of those aptamers prevented clot formation
B2,activity compared to the free combination of aptamers (in words),[10],comparable or better activity than the free combination of aptamers
same,activity compared to the free combination of aptamers (in words),[10]; listed as Dogbone Aptamer 4,inhibits clot formation as well as the combination of individual Factor II (R9D-14T) and X (11f7T) aptamers
